Target: T1, ArcR (Staphylococcus aureus NCTC8325 (?)) (UniProt Q2FUY1)
T1 sequence: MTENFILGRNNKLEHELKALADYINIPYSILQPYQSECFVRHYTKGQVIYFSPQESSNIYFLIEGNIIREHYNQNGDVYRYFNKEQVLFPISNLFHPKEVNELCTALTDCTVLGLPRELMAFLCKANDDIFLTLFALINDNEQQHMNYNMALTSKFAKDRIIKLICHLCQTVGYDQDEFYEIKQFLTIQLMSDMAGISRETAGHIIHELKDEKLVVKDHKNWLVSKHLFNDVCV
Experiment: EMSA
Settings: 25 mM HEPES, 300 mM NaCl, 1 mM DTT, 10% glycerol, pH 7.8; 30 min at room temperature ([…]) or 37 °C ([…]

Sequence	binding
AGCGCGTGTTGTTATGTCGCGAATGGTAATCTTTTCTAAATCTTTTTCTTGTAGTAATTTAGTGAACGCTTGTTTAATGGAGGACTTTGTCTTTCTAATTCGCCTATCTTCTTTCAAAAATAAATCAACCTCCTTGTGTTATTGAACAATGTGGGTGTATTTGTCTATTAATGAACGTATTGATGAACATTGTGTATTGTTTATTCCCACTTACATATTATAATAGACAACATGCGAAATATTCAACACATTGTCTAATAAGGAGGT (double strand) [tetA promoter fragment]	no binding
ACCTACCTTTCGTTAGTTAGGTTGTAAGCCATATGGTAATTGATAGTATTTTAATTTGCAATAGATTGTTGTTATAATTAAACGGAAATATTTGTAATTGCAACTTAATTTTCCTGTAACATAGTGTGATTAATTTTCAGTAGGGGGTTATAAAAATTGAAGGATAAGATTATTGATAACGCAATAACCTTATTTTCAGAGAAGGGGTATGACGGTACAACACTTGATGATATAGCT (double strand) [ica promoter (icaA) fragment]	binds
TCAACTTTGACTAACCCTCGAAATTGAAATGCTTCCTTTCAAATTTTAAATAAAAGTTAAAAACATATTCTTAAAATAATCACTCATCATCACTCAGTAATTTATCAGTTGCTACATTAAATATACTAATATAAACGATTATAAATATTTGATATGTCTCAACTGCAATATTCTAAATTGACATATTGATTATTGTTTCCTCAAATCGTTTTAAAAAATAGAAGGATGATGAAAATGAAAACACGTATAGTCAGCTCAGTAACAACAACACTATTGCTAGGTT (double strand) [hla promoter fragment]	binds

Reference: article PMC10384999
